Data taken from the supplement of paper PMC12338614.
± gives the uncertainty stated by the source.

B1: library; numbered along this chain (parent)
chain: MEVVDPQQLGMFTEGELMSVGMDTFIHRIDSTEVIYQPRRKRAKLIGKYLMGDLLGEGSYGKVKEVLDSETLCRRAVKILKKKKLRRIPNGEANVKKEIQLLRRLRHKNVIQLVDVLYNEEKQKMYMVMEYCVCGMQEMLDSVPEKRFPVCQAHGYFCQLIDGLEYLHSQGIVHKDIKPGNLLLTTGGTLKISDLGVAEALHPFAADDTCRTSQGSPAFQPPEIANGLDTFSGFKVDIWSAGVTLYNITTGLYPFEGDNIYKLFENIGKGSYAIPGDCGPPLSDLLKGMLEYEPAKRFSIRQIRQHSWFRKKHPPAEAPVPIPPSPDTKDRWRSMTVVPYLEDLHGADEDEDLFDIEDDIIYTQDFTVPGQVPEEEASHNGQRRGLPKAVCMNGTEAAQLSTKSRAEGRAPNPARKACSASSKIRRLSACKQQ

Variants of: B1
Experiment: STK11 functional score (HeLa growth suppression), rescaled enrichment; synonymous median = 1, nonsense median = 0 (normalised score)
Conditions: with HeLa; variant type: missense
Protocol: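 Deep mutational scan (TileSeq/POPCode codon randomisation) of full-length codon-optimised STK11 cDNA integrated at a Bxb1 landing pad (AAVS1) in HeLa cells. Restoring functional STK11 suppresses HeLa proliferation. Variant frequencies were measured by NGS before and after about two weeks of growth. The error-corrected enrichment log-ratio was rescaled so that synonymous median = 1 and nonsense median = 0, scores above 1 were compressed, and codon-level and three biological replicate scores were combined; error is the bootstrapped standard error. Scale: synonymous median = 1, nonsense median = 0; below 0.5 = damaging.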

Point of comparison: P314M, STK11 functional score 1.62 ± 0.15. Against it:
- F231P — lower, 0.959 ± 0.34
- M129T — lower, 0.97 ± 0.14
- I79L — lower, 0.451 ± 0.14
- I79H — lower, -0.113 ± 0.19
- N119A — within error, 1.44 ± 0.23
- M18S — lower, 1.31 ± 0.14
- E199A — within error, 1.44 ± 0.23
- S428F — within error, 1.61 ± 0.12
- S428L — lower, 0.874 ± 0.14
- S193H — lower, 0.192 ± 0.33
- N90S — lower, 1.21 ± 0.14
- F264P — within error, 1.4 ± 0.39
- R331L — lower, 1.2 ± 0.16
- R333S — within error, 1.55 ± 0.2
- H107T — within error, 1.02 ± 0.7
- K431C — within error, 1.59 ± 0.34
- E145C — within error, 1.41 ± 0.52
- P323R — lower, 1.01 ± 0.38
- I99W — lower, 0.631 ± 0.11
- S419N — within error, 1.54 ± 0.13
- G135P — within error, 1.7 ± 0.27
- N266V — lower, 0.844 ± 0.18
- G394C — lower, 1.28 ± 0.15
- D53H — lower, 1.23 ± 0.18
- D327H — within error, 1.21 ± 0.56
- Y60W — within error, 1.58 ± 0.15
- Y60I — within error, 1.23 ± 0.3
- E92Q — within error, 1.16 ± 0.51
- V20A — within error, 1.29 ± 0.21
- V20H — within error, 1.44 ± 0.17
- Y156D — lower, 0.293 ± 0.4
- Y156Q — lower, 0.148 ± 0.081
- E57A — lower, 1.15 ± 0.13
- I356V — within error, 1.46 ± 0.28
- S422Y — within error, 1.54 ± 0.15
- K108W — lower, 0.834 ± 0.38
- M11G — within error, 1.4 ± 0.54
- G188L — lower, 0.732 ± 0.17
- N393H — within error, 1.51 ± 0.48
- L341C — within error, 1.38 ± 0.17
- L341A — within error, 1.51 ± 0.15
- T244G — lower, 0.014 ± 0.099
- T244I — lower, 0.627 ± 0.11
- A198R — lower, 0.174 ± 0.098
- G251R — lower, 0.411 ± 0.19
- R211T — within error, 1.22 ± 0.53
- R86D — within error, 1.68 ± 0.19
- E14D — within error, 1.22 ± 0.3
- G10D — within error, 1.4 ± 0.1
- M136N — lower, -0.15 ± 0.087
- E33C — within error, 1.11 ± 0.49
- E33G — lower, 0.902 ± 0.25
- K146W — lower, 0.507 ± 0.098
- A225Y — lower, 0.922 ± 0.45
- V77L — lower, 1.04 ± 0.22
- V77P — lower, 0.512 ± 0.16
- M289V — lower, 0.966 ± 0.44
- M289R — lower, -0.101 ± 0.11
- M289D — lower, 0.312 ± 0.18
- D194P — lower, -0.348 ± 0.096
- Q214I — lower, 1.05 ± 0.27
- K122R — within error, 1.69 ± 0.38
- K122P — within error, 1.68 ± 0.28
- N247M — lower, 0.7 ± 0.58
- A347L — within error, 1.46 ± 0.16
- Y246E — lower, 0.0519 ± 0.077
- T336C — within error, 1.27 ± 0.34
- T336E — within error, 1.61 ± 0.15
- G276P — lower, 1.22 ± 0.22
- N412S — within error, 1.48 ± 0.23
- N412W — lower, 0.786 ± 0.18
- N412D — within error, 1.53 ± 0.32
- W239H — lower, 0.199 ± 0.11
- R42S — within error, 1.08 ± 0.58
- S401C — lower, 1.05 ± 0.36
- S401L — within error, 1.51 ± 0.28
- S401F — within error, 1.49 ± 0.24
- R74F — lower, 0.896 ± 0.37
- V372R — within error, 1.42 ± 0.38
- S169L — lower, 0.7 ± 0.33
- I172M — lower, 0.35 ± 0.093
- D162R — within error, 1.55 ± 0.43
- K388E — within error, 1.42 ± 0.33
